Assay results from paper PMC7395460, “Structural mechanism of helicase loading onto replication origin DNA by ORC-Cdc6” (Proceedings of the National Academy of Sciences of the …, 2020).

T1: Mcm4 (S. cerevisiae, UniProt P30665 1-933)
T1 construct: Mcm4 of S. cerevisiae; Stood in the assay as a subunit of the mutant Mcm2-7
T1 sequence: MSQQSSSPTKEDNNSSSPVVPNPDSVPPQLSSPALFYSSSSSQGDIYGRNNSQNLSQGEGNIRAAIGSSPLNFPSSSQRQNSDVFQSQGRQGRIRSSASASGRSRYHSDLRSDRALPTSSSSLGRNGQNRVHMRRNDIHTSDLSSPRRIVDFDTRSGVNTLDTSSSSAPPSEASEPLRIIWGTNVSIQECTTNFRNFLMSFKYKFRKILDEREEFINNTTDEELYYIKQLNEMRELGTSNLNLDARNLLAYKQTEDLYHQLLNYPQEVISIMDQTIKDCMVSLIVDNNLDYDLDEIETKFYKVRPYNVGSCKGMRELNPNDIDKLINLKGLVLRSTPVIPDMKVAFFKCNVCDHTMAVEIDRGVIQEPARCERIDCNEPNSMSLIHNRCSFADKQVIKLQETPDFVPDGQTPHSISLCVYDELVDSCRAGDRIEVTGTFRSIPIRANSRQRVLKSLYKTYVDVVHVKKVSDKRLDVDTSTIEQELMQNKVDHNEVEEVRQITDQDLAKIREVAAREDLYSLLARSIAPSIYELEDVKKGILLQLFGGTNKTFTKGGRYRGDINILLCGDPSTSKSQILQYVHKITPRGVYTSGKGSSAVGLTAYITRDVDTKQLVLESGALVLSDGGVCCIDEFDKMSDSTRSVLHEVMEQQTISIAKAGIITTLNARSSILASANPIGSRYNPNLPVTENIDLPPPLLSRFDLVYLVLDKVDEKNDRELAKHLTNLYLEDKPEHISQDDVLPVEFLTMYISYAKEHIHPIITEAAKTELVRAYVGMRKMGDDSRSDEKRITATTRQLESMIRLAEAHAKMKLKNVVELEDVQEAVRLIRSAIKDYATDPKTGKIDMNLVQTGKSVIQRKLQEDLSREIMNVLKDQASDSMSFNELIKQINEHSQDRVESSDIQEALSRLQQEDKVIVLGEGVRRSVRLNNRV

B1: Orc2 (natural protein, S. cerevisiae)
chain: MLNGEDFVEHNDILSSPAKSRNVTPKRVDPHGERQLRRIHSSKKNLLERISLVGNERKNTSPDPALKPKTPSKAPRKRGRPRKIQEELTDRIKKDEKDTISSKKKRKLDKDTSGNVNEESKTSNNKQVMEKTGIKEKREREKIQVATTTYEDNVTPQTDDNFVSNSPEPPEPATPSKKSLTTNHDFTSPLKQIIMNNLKEYKDSTSPGKLTLSRNFTPTPVPKNKKLYQTSETKSASSFLDTFEGYFDQRKIVRTNAKSRHTMSMAPDVTREEFSLVSNFFNENFQKRPRQKLFEIQKKMFPQYWFELTQGFSLLFYGVGSKRNFLEEFAIDYLSPKIAYSQLAYENELQQNKPVNSIPCLILNGYNPSCNYRDVFKEITDLLVPAELTRSETKYWGNHVILQIQKMIDFYKNQPLDIKLILVVHNLDGPSIRKNTFQTMLSFLSVIRQIAIVASTDHIYAPLLWDNMKAQNYNFVFHDISNFEPSTVESTFQDVMKMGKSDTSSGAEGAKYVLQSLTVNSKKMYKLLIETQMQNMGNLSANTGPKRGTQRTGVELKLFNHLCAADFIASNEIALRSMLREFIEHKMANITKNNSGMEIIWVPYTYAELEKLLKTVLNTL
notes: Orc2, subunit of the S. cerevisiae origin recognition complex; Stood in the assay as a subunit of ORC
B2: Orc1 (natural protein, S. cerevisiae)
chain: MAKTLKDLQGWEIITTDEQGNIIDGGQKRLRRRGAKTEHYLKRSSDGIKLGRGDSVVMHNEAAGTYSVYMIQELRLNTLNNVVELWALTYLRWFEVNPLAHYRQFNPDANILNRPLNYYNKLFSETANKNELYLTAELAELQLFNFIRVANVMDGSKWEVLKGNVDPERDFTVRYICEPTGEKFVDINIEDVKAYIKKVEPREAQEYLKDLTLPSKKKEIKRGPQKKDKATQTAQISDAETRATDITDNEDGNEDESSDYESPSDIDVSEDMDSGEISADELEEEEDEEEDEDEEEKEARHTNSPRKRGRKIKLGKDDIDASVQPPPKKRGRKPKDPSKPRQMLLISSCRANNTPVIRKFTKKNVARAKKKYTPFSKRFKSIAAIPDLTSLPEFYGNSSELMASRFENKLKTTQKHQIVETIFSKVKKQLNSSYVKEEILKSANFQDYLPARENEFASIYLSAYSAIESDSATTIYVAGTPGVGKTLTVREVVKELLSSSAQREIPDFLYVEINGLKMVKPTDCYETLWNKVSGERLTWAASMESLEFYFKRVPKNKKKTIVVLLDELDAMVTKSQDIMYNFFNWTTYENAKLIVIAVANTMDLPERQLGNKITSRIGFTRIMFTGYTHEELKNIIDLRLKGLNDSFFYVDTKTGNAILIDAAGNDTTVKQTLPEDVRKVRLRMSADAIEIASRKVASVSGDARRALKVCKRAAEIAEKHYMAKHGYGYDGKTVIEDENEEQIYDDEDKDLIESNKAKDDNDDDDDNDGVQTVHITHVMKALNETLNSHVITFMTRLSFTAKLFIYALLNLMKKNGSQEQELGDIVDEIKLLIEVNGSNKFVMEIAKTLFQQGSDNISEQLRIISWDFVLNQLLDAGILFKQTMKNDRICCVKLNISVEEAKRAMNEDETLRNL
notes: Orc1, subunit of the S. cerevisiae origin recognition complex; Stood in the assay as a subunit of ORC
B3: Mcm7 (natural protein, S. cerevisiae, UniProt P38132 1-845, looked up)
chain: MSAALPSIQLPVDYNNLFNEITDFLVTFKQDTLSSDATRNENEDENLDAENIEQHLLEKGPKYMAMLQKVANRELNSVIIDLDDILQYQNEKFLQGTQADDLVSAIQQNANHFTELFCRAIDNNMPLPTKEIDYKDDVLDVILNQRRLRNERMLSDRTNEIRSENLMDTTMDPPSSMNDALREVVEDETELFPPNLTRRYFLYFKPLSQNCARRYRKKAISSKPLSVRQIKGDFLGQLITVRGIITRVSDVKPAVEVIAYTCDQCGYEVFQEVNSRTFTPLSECTSEECSQNQTKGQLFMSTRASKFSAFQECKIQELSQQVPVGHIPRSLNIHVNGTLVRSLSPGDIVDVTGIFLPAPYTGFKALKAGLLTETYLEAQFVRQHKKKFASFSLTSDVEERVMELITSGDVYNRLAKSIAPEIYGNLDVKKALLLLLVGGVDKRVGDGMKIRGDINVCLMGDPGVAKSQLLKAICKISPRGVYTTGKGSSGVGLTAAVMKDPVTDEMILEGGALVLADNGICCIDEFDKMDESDRTAIHEVMEQQTISISKAGINTTLNARTSILAAANPLYGRYNPRLSPLDNINLPAALLSRFDILFLMLDIPSRDDDEKLAEHVTYVHMHNKQPDLDFTPVEPSKMREYIAYAKTKRPVMSEAVNDYVVQAYIRLRQDSKREMDSKFSFGQATPRTLLGIIRLSQALAKLRLADMVDIDDVEEALRLVRVSKESLYQETNKSKEDESPTTKIFTIIKKMLQETGKNTLSYENIVKTVRLRGFTMLQLSNCIQEYSYLNVWHLINEGNTLKFVDDGTMDTDQEDSLVSTPKLAPQTTASANVSAQDSDIDLQDA
notes: Mcm7 of S. cerevisiae; Stood in the assay as a subunit of the mutant Mcm2-7; in the semi-attached OCCM only its WHD is resolved

What was measured:
Assay in all cases: cryo-EM structure; pre-insertion OCCM, 8.1 Å; same loading reaction (purified ORC, Cdc6, Cdt1, mutant Mcm2-7, ARS1 DNA, ATPγS); models docked as rigid bodies
Settings in all cases: both partners purified
Mcm3 = target: T2, Mcm3 (S. cerevisiae, UniProt P24279 1-971)
T2 construct: Mcm3 of S. cerevisiae; Stood in the assay as a subunit of the mutant Mcm2-7; in the semi-attached OCCM only its WHD is resolved

Mcm4 = target: T1, Mcm4
Orc1 = target: B2

T2 sequence (P24279 whole entry): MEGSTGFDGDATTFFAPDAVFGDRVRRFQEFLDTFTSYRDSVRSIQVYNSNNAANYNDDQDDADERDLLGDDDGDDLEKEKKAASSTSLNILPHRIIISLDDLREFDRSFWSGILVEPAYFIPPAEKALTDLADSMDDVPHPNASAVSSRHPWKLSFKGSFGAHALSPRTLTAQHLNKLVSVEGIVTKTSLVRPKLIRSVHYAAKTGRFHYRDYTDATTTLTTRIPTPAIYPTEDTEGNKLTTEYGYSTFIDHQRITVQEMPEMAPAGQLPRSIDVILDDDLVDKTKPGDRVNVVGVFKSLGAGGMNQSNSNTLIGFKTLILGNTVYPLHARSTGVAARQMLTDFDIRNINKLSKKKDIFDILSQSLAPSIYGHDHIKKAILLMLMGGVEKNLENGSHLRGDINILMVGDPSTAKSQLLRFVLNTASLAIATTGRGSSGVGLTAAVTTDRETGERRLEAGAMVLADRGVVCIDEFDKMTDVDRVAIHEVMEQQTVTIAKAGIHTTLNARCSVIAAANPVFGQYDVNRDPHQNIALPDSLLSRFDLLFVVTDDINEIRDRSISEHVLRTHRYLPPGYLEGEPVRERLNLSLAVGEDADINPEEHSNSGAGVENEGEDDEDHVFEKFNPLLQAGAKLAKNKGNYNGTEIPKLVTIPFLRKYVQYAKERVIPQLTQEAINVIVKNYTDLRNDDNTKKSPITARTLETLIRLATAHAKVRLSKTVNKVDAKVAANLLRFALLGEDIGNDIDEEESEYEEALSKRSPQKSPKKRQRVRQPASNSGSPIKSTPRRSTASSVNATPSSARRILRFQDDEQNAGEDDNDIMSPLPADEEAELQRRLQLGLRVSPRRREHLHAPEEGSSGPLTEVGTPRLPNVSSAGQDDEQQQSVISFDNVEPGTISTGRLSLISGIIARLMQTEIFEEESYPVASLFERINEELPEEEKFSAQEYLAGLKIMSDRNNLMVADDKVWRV

Binder: B1
binding result (Mcm3): binds

Binder: B2
binding result (Mcm4): binds

Binder: B3
binding result (Orc1): binds
